From article PMC4898930

Target: Myc-N1
Test: co-immunoprecipitation (IP with Myc antibody), quantification of western blot bands
Conditions: HEK293 cells, more than 3 independent experiments, read off a plot

Substance Fam65b-GFP (from UniProt Q80U16) RL/AA has a response (relative intensity) (control (without HA-RhoC), parent: est. 1.0) of 0.47 and a response (relative intensity) (with HA-RhoC co-expressed, parent: est. 1.7) of 0.2.
